Legend:
[1] = molecular target: methyl cytosine binding protein 2 (MeCP2); test: immunofluorescence, cells transduced with AAV9-MECP2 at MOI 37500, well 2 (background level)
[2] = molecular target: human survival motor neuron (SMN1) protein (human) (UniProt Q16637); test: immunofluorescence, fixed/permeabilised mTD-NPC-delta7 cells transduced with AAV9-SMN1 at MOI 300000, well 1
[3] = molecular target: methyl cytosine binding protein 2 (MeCP2); test: immunofluorescence, cells transduced with AAV9-MECP2 at MOI 37500, well 1 (background level)
[4] = molecular target: methyl cytosine binding protein 2 (MeCP2); test: immunofluorescence, cells transduced with AAV9-MECP2 at MOI 75000, well 1 (background level)
[5] = molecular target: human survival motor neuron (SMN1) protein (human) (UniProt Q16637); test: immunofluorescence, cells transduced with AAV9-SMN1 at MOI 37500, well 1
[6] = molecular target: human survival motor neuron (SMN1) protein (human) (UniProt Q16637); test: immunofluorescence, cells transduced with AAV9-SMN1 at MOI 150000, well 1
[7] = molecular target: methyl cytosine binding protein 2 (MeCP2); test: immunofluorescence, cells transduced with AAV9-MECP2 at MOI 300000, well 1 (background level)
[8] = molecular target: methyl cytosine binding protein 2 (MeCP2); test: immunofluorescence, cells transduced with AAV9-MECP2 at MOI 18750, well 2 (background level)
[9] = molecular target: human survival motor neuron (SMN1) protein (human) (UniProt Q16637); test: immunofluorescence, cells transduced with AAV9-SMN1 at MOI 150000, well 2
[10] = molecular target: human survival motor neuron (SMN1) protein (human) (UniProt Q16637); test: immunofluorescence, cells transduced with AAV9-SMN1 at MOI 18750, well 1
[11] = molecular target: human survival motor neuron (SMN1) protein (human) (UniProt Q16637); test: immunofluorescence, cells transduced with AAV9-SMN1 at MOI 75000, well 2
[12] = molecular target: human survival motor neuron (SMN1) protein (human) (UniProt Q16637); test: immunofluorescence, cells transduced with AAV9-SMN1 at MOI 75000, well 1
[13] = molecular target: human survival motor neuron (SMN1) protein (human) (UniProt Q16637); test: immunofluorescence, fixed/permeabilised mTD-NPC-delta7 cells transduced with AAV9-SMN1 at MOI 300000, well 2
[14] = molecular target: methyl cytosine binding protein 2 (MeCP2); test: immunofluorescence, cells transduced with AAV9-MECP2 at MOI 300000, well 2 (background level)
[15] = molecular target: methyl cytosine binding protein 2 (MeCP2); test: immunofluorescence, cells transduced with AAV9-MECP2 at MOI 150000, well 2 (background level)
[16] = molecular target: methyl cytosine binding protein 2 (MeCP2); test: immunofluorescence, cells transduced with AAV9-MECP2 at MOI 18750, well 1 (background level)
[17] = molecular target: methyl cytosine binding protein 2 (MeCP2); test: immunofluorescence, cells transduced with AAV9-MECP2 at MOI 75000, well 2 (background level)
[18] = molecular target: human survival motor neuron (SMN1) protein (human) (UniProt Q16637); test: immunofluorescence, cells transduced with AAV9-SMN1 at MOI 37500, well 2
[19] = molecular target: human survival motor neuron (SMN1) protein (human) (UniProt Q16637); test: immunofluorescence, cells transduced with AAV9-SMN1 at MOI 18750, well 2
[20] = molecular target: methyl cytosine binding protein 2 (MeCP2); test: immunofluorescence, cells transduced with AAV9-MECP2 at MOI 150000, well 1 (background level)

UniProt Q16637, sequence (Q16637 2-294 limits assumed): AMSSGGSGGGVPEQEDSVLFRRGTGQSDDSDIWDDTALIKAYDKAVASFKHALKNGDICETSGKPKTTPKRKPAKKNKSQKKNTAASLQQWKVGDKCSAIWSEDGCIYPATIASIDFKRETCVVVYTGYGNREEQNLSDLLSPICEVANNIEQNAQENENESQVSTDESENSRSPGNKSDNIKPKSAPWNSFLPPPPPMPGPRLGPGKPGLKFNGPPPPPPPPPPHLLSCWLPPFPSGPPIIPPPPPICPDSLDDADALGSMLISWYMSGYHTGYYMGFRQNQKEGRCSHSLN

IFI-C (integrated fluorescent intensity per cell) [1]: 817000
IFI-C (integrated fluorescent intensity per cell) [3]: 809000
IFI-C (integrated fluorescent intensity per cell) [4]: 837000
IFI-C (integrated fluorescent intensity per cell) [7]: 867000
IFI-C (integrated fluorescent intensity per cell) [8]: 759000
IFI-C (integrated fluorescent intensity per cell) [14]: 875000
IFI-C (integrated fluorescent intensity per cell) [15]: 839000
IFI-C (integrated fluorescent intensity per cell) [16]: 720000
IFI-C (integrated fluorescent intensity per cell) [17]: 860000
IFI-C (integrated fluorescent intensity per cell) [20]: 886000
Substance: mouse monoclonal anti-SMN antibody (Clone 2B1)
IFI-C (integrated fluorescent intensity per cell) [2]: 3.43e+06
IFI-C (integrated fluorescent intensity per cell) [5]: 1.87e+06
IFI-C (integrated fluorescent intensity per cell) [6]: 2.87e+06
IFI-C (integrated fluorescent intensity per cell) [9]: 3.02e+06
IFI-C (integrated fluorescent intensity per cell) [10]: 1.46e+06
IFI-C (integrated fluorescent intensity per cell) [11]: 2.46e+06
IFI-C (integrated fluorescent intensity per cell) [12]: 2.34e+06
IFI-C (integrated fluorescent intensity per cell) [13]: 3.27e+06
IFI-C (integrated fluorescent intensity per cell) [18]: 1.86e+06
IFI-C (integrated fluorescent intensity per cell) [19]: 1.51e+06

From US20210255185A1
